Test results taken from US20140248641A1, “CLONED GLUCAGON-LIKE PEPTIDE-2 RECEPTORS” (NPS PHARMACEUTICALS, INC., priority 1997, published 2014).
Where a chain is given by its changes, count along the chain named.

Tests used:
Type in all cases: cell-based
[1] = molecular target: T1, cloned human GLP-2 receptor (pC3/HuGL2R-2) (Homo sapiens, UniProt O95838); experiment: cAMP functional assay in transfected COS-1 cells, human GLP-2 receptor; conditions: FIG. 8
T1 construct: expressed in transfected cells; host or cells: COS-1
T1 sequence (O95838 1-553): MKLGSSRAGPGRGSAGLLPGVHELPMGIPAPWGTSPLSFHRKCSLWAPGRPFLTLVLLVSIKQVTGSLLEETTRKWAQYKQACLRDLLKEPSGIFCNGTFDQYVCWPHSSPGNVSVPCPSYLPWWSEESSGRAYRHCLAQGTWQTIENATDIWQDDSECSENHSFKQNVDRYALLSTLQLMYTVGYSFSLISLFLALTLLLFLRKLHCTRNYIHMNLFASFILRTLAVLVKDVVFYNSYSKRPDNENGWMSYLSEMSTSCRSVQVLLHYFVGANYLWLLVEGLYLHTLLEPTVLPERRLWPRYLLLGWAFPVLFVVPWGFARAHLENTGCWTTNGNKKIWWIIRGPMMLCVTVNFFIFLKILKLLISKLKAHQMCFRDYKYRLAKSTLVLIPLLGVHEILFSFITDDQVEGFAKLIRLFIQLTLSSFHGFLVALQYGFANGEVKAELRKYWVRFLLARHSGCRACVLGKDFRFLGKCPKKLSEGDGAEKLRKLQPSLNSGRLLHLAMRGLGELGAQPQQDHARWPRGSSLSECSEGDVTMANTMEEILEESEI
Method: (§1) Cos-1 cells were transfected as described in Analytical Biochemistry, 218:460-463(1994) with Rat clone 587 GLP-2 receptor, cloned human GLP-2 receptor (pC3/HuGL2R-2), or cloned residue 85 variant human GLP-2 receptor (pC3.1/HuGL2R-MH4), pcDNA3. Rat GLP-1 (7-36) amide was used as a control peptide. Solutions used were as follows:
(§2) RSC in RPMI 1640 (49 ml RPMI+1 ml FCS+5)0 ulchloroquine, 100 mM); DEAE/RSC Solution: 18.4 ml RSC+1.6 ml DEAE/Dextran (10 mg/ml).
(§3) The assay procedure entailed the following: […]
(§4) The functional assay was performed as follows: cAMP content for each extract was determined in duplicate by EIA (Enzyme ImmunoAssay) using the Amersham Biotrak cAMP EIA Kit (Amersham 225). […]

[2] = molecular target: T2, cloned residue 85 variant human GLP-2 receptor (Homo sapiens, UniProt O95838, R85E); experiment: cAMP functional assay in transfected COS-1 cells, residue 85 variant human GLP-2 receptor; conditions: hybrid clone pc3.1/HuGL2R/MH6 with 2 bp GA replacement (Glu85 variant)
T2 construct: Myc-His (from vector pcDNA3.1(-)/Myc-His A) (C); expressed in transfected cells; host or cells: COS-1
T2 sequence (O95838 1-553 R85E): T1 sequence (O95838 1-553) with R85E
Method: Rat GLP-1 (7-36) amide was used as a control peptide. Solutions used were as follows:
as §2
The assay procedure entailed the following:
a) […] of either rat clone 587 GLP-2 receptor, or cloned human GLP-2 receptor, or cloned residue 85 variant human GLP-2 receptor was added (as plasmid pcDNA3) to a 50 ml tube containing six mls. of RSC and incubated at 37° C. b) Six ml of DEAE/RSC solution was added to each tube and incubated at 37° C. for 2 min. c) 1.5 ml of COS-1 cell suspension (5.5 millions cells) was added to each tube and incubated for 1 hr 45 min at 37° C. d) Following incubation, the sample was spun for 5 minutes at low speed, washed with DMEM/F12+10% FBS twice, and the pellet resuspended in 12.5 ml DMEM/F12+10% FBS media. e) One ml of cell suspension (step d) was added to each well of 6 well plates coated with poly-D-lysine (from Collaborative Biomedical), containing 3 ml of media (0.45 million cells/well). f) Plates were incubated at 37° C. for 3 days.
Media was prepared fresh on day of use. […]
as §4

[3] = system: HHT13 clones (human GLP-2R cDNA with frame-shift mutation); experiment: cAMP functional assay in COS cells transfected with HHT13 clones; conditions: COS cells transfected with pHHT13-1, pHHT13-2, pHHT13-3
Method: Transfections were carried out with each clone, using the rat GLP-2R, 587 clone as a positive control for cAMP response to GLP-2 peptide. Methods for transfection, cell culture and cAMP assay were identical to those described for the functional assay of rat, 587 clone.

[4] = molecular target: T3, Rat clone 587 GLP-2 receptor (Rattus norvegicus, UniProt Q9Z0W0); experiment: cAMP functional assay in transfected COS-1 cells, rat GLP-2 receptor
T3 construct: one which primed starting 4 bp upstream of the initiation codon and another which primed starting 8 bp downstream of the stop codon; expressed in transfected cells; host or cells: COS-1
T3 sequence (Q9Z0W0 1-550): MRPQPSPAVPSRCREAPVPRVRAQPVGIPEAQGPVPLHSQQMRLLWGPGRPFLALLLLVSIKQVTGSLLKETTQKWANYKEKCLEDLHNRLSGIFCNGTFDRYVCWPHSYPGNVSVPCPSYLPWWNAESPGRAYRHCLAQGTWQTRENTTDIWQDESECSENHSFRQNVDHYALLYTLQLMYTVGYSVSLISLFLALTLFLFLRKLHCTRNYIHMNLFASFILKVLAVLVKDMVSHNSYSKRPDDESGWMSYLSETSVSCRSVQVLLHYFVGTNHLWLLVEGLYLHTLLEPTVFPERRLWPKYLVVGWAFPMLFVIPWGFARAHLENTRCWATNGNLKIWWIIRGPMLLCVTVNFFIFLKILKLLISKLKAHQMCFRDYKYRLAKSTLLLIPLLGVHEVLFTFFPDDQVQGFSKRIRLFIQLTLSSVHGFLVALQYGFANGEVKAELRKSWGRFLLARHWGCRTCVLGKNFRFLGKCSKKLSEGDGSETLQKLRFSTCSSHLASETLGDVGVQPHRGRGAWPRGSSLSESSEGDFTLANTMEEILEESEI
Method: as §1, §2, §3
The functional assay was performed as follows: cAMP content for each extract was determined in duplicate by EIA (Enzyme ImmunoAssay) using the Amersham Biotrak cAMP EIA Kit (Amersham 225).

In the case of Glucagon-like peptide-2 [GLP-2], the “cAMP production in response to GLP-2 treatment” value ([1]; COS cells transfected with pc3/HuGL2R-2) is reported as “cAMP production”, the “selectivity of receptor for GLP-2 over GLP-1 (cAMP)” value ([1]; cloned human receptor, peptides at 1, 3, 10 and 30 nM, 30 min) is reported as “GLP-2 selectivity” and the “cAMP response to GLP-2 treatment” value [2] is reported as “cAMP response”. For the same substance, the “cAMP response to GLP-2 peptide” value [3] was “none of the HHT13 clones gave any cAMP response”, the “cAMP response to GLP-2 peptide” value ([4]; COS cells transfected with rat GLP-2R 587 clone (positive control), cAMP EIA) was “good cAMP response” and the “selectivity of receptor for GLP-2 over GLP-1 (cAMP)” value ([4]; cloned rat receptor, peptides at 1, 3, 10 and 30 nM, 30 min, FIG. 3) was “GLP-2 selectivity”.
